Reference: the supplement of paper PMC10065799, “High-throughput profiling of sequence recognition by tyrosine kinases and SH2 domains using bacterial peptide display” (eLife, 2023)

Biological target: Hck (UniProt P08631)
Assay: phosphorylation enrichment, bacterial display (enrichment ratio); higher = better substrate or ligand; peptides without Tyr show the background
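Further: 11-residue human phosphosite peptides and single-mutation variants displayed on the E. coli surface, counted by deep sequencing, each peptide's frequency after selection divided by its frequency in the unselected input library; frequency after pTyr selection over input frequency; kinase dosed for 20-30% of maximal phosphorylation in three min.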

Hck, sequence (P08631 whole entry, looked up): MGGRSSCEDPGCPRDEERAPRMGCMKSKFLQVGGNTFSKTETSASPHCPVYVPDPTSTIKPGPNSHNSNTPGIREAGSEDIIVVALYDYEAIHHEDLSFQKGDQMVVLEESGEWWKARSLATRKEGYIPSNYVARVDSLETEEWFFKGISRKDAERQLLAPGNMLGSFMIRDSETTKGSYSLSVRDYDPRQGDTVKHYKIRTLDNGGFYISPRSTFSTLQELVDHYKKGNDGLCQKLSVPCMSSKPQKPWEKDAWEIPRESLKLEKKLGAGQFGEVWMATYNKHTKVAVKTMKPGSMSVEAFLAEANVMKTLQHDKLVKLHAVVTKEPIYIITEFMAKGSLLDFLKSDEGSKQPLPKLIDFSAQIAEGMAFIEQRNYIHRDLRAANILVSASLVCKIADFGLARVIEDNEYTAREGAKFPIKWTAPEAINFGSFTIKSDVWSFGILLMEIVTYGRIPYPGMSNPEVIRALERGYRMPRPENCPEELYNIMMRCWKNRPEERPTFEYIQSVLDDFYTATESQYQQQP

| Sequence | phosphorylation enrichment |
| --- | --- |
| QHNPEYVQQAS [LRRC7_Y1058] | 0.69 |
| SENPKYPEVGD [TMEM43_Y233] | 0.536 |
| TYEPNYGTVKR [RAPGEF6_Y1447_Q1452R] | 3.66 |
| SNFRAYATEPH [TNNI3_Y29_YF] | 0.441 |
| IRGNMYFENSF [EGFR_Y112_YF] | 0.457 |
| WKKEIYEESST [MOCS2_Y170] | 0.488 |
| LGRGKSSEVFE [CSNK2A1_Y50_Y50S] | 0.517 |
| KSMSVYCTPNK [ATP2A2_Y497] | 1 |
| VYAADYYKLLG [ROR2_Y645] | 1.28 |
| KDHPDYKYPPR [SOX10_Y171_Q174P] | 0.381 |
| ESDGAYIQRMQ [CCDC137_Y125_H127Q] | 0.446 |
| RDMNAYISPSP [MMAA_Y207_R209S] | 0.323 |
| ARKRKYFKKHE [NFIX_Y40] | 0.605 |
| HTEGEYSSLEH [IDH3B_Y171_Q166H] | 1.24 |
| IGEGTSGVVYK [CDK2_Y15_Y15S] | 0.306 |
| KLPDAYERLIL [G6PD_Y437] | 0.582 |
| HSGVSYYINLC [IGF2R_Y2024_N2020S] | 0.729 |

| Sequence | phosphorylation enrichment |
| --- | --- |
| KDHPDYKYQRR [SOX10_Y171_P175R] | 0.367 |
| QRRNVYYYSYL [PTEN_Y176_Y174N] | 7.54 |
| GDYLSYREFHL [ERBIN_Y1107_S1112L] | 2.45 |
| DPTFGYEDFTR [SESN2_Y323] | 0.595 |
| PGIRMYQVQYN [LRFN1_Y454] | 0.503 |
| LESETYRRLLD [KRT12_Y429_I426S] | 0.697 |
| IHHIDYYKETT [FGFR1_Y653_K656E] | 0.471 |
| QRIHDYYEHRY [HCN4_Y554] | 0.825 |
| LTSKPYAFTAQ [NDUFS1_Y236_R241Q] | 0.363 |
| ERMKVYVPIGF [EPHX1_Y393_T396I] | 0.622 |
| PTYEHYANSTQ [SLC12A3_Y70] | 1.53 |
| DSSIRYLQEIF [FGG_Y135_YF] | 0.527 |
| IDAICYFRMEN [NPHS2_Y194_YF] | 0.612 |
| TSYQMYDKGLV [IARS2_Y231_F227S] | 1.13 |
| EKKDVYKAGEQ [CFH_Y1008] | 0.386 |
| LNPFIYSLRNW [OR1A2_Y288] | 6.49 |

Test system: Fer (mouse)
Assay: as above

| Sequence | phosphorylation enrichment |
| --- | --- |
| QHNPEYVQQAS [LRRC7_Y1058] | 0.73 |
| SENPKYPEVGD [TMEM43_Y233] | 0.424 |
| TYEPNYGTVKR [RAPGEF6_Y1447_Q1452R] | 1.65 |
| SNFRAYATEPH [TNNI3_Y29_YF] | 0.366 |
| IRGNMYFENSF [EGFR_Y112_YF] | 0.527 |
| WKKEIYEESST [MOCS2_Y170] | 0.471 |
| LGRGKSSEVFE [CSNK2A1_Y50_Y50S] | 0.593 |
| KSMSVYCTPNK [ATP2A2_Y497] | 0.509 |
| VYAADYYKLLG [ROR2_Y645] | 0.516 |
| KDHPDYKYPPR [SOX10_Y171_Q174P] | 0.345 |
| ESDGAYIQRMQ [CCDC137_Y125_H127Q] | 0.417 |
| RDMNAYISPSP [MMAA_Y207_R209S] | 0.66 |
| ARKRKYFKKHE [NFIX_Y40] | 0.281 |
| HTEGEYSSLEH [IDH3B_Y171_Q166H] | 0.791 |
| IGEGTSGVVYK [CDK2_Y15_Y15S] | 0.339 |
| KLPDAYERLIL [G6PD_Y437] | 0.634 |
| HSGVSYYINLC [IGF2R_Y2024_N2020S] | 0.951 |

| Sequence | phosphorylation enrichment |
| --- | --- |
| KDHPDYKYQRR [SOX10_Y171_P175R] | 0.303 |
| QRRNVYYYSYL [PTEN_Y176_Y174N] | 2.77 |
| GDYLSYREFHL [ERBIN_Y1107_S1112L] | 0.79 |
| DPTFGYEDFTR [SESN2_Y323] | 0.445 |
| PGIRMYQVQYN [LRFN1_Y454] | 0.446 |
| LESETYRRLLD [KRT12_Y429_I426S] | 0.708 |
| IHHIDYYKETT [FGFR1_Y653_K656E] | 0.396 |
| QRIHDYYEHRY [HCN4_Y554] | 0.903 |
| LTSKPYAFTAQ [NDUFS1_Y236_R241Q] | 0.524 |
| ERMKVYVPIGF [EPHX1_Y393_T396I] | 0.425 |
| PTYEHYANSTQ [SLC12A3_Y70] | 0.828 |
| DSSIRYLQEIF [FGG_Y135_YF] | 0.417 |
| IDAICYFRMEN [NPHS2_Y194_YF] | 0.484 |
| TSYQMYDKGLV [IARS2_Y231_F227S] | 0.405 |
| EKKDVYKAGEQ [CFH_Y1008] | 0.624 |
| LNPFIYSLRNW [OR1A2_Y288] | 2.28 |

Biological target: FGFR3 (UniProt P22607)
Sequence (P22607 whole entry, looked up): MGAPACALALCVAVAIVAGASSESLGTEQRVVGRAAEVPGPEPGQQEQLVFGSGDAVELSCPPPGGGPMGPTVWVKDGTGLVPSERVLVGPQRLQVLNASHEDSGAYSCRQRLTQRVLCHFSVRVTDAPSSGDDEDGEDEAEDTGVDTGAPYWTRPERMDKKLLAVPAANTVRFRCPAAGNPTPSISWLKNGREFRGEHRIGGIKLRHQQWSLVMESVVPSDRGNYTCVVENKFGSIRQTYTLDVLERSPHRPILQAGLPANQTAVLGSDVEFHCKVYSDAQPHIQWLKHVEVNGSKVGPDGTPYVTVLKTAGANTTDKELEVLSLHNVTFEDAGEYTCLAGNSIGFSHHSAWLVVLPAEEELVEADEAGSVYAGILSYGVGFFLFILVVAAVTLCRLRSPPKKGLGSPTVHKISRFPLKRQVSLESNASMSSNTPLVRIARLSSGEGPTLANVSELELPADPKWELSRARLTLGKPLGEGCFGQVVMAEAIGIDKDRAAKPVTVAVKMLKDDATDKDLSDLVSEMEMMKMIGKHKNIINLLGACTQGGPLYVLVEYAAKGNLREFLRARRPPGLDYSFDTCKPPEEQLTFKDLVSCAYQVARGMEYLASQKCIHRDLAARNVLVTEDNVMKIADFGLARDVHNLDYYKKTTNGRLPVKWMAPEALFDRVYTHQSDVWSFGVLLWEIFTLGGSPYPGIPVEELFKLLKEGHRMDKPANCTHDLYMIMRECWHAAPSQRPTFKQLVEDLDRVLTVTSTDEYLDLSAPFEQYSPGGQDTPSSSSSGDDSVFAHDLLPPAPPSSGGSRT
Assay: as above

| Sequence | phosphorylation enrichment |
| --- | --- |
| QHNPEYVQQAS [LRRC7_Y1058] | 0.65 |
| SENPKYPEVGD [TMEM43_Y233] | 0.734 |
| TYEPNYGTVKR [RAPGEF6_Y1447_Q1452R] | 0.43 |
| SNFRAYATEPH [TNNI3_Y29_YF] | 0.462 |
| IRGNMYFENSF [EGFR_Y112_YF] | 0.713 |
| WKKEIYEESST [MOCS2_Y170] | 0.661 |
| LGRGKSSEVFE [CSNK2A1_Y50_Y50S] | 0.661 |
| KSMSVYCTPNK [ATP2A2_Y497] | 0.632 |
| VYAADYYKLLG [ROR2_Y645] | 10.1 |
| KDHPDYKYPPR [SOX10_Y171_Q174P] | 0.522 |
| ESDGAYIQRMQ [CCDC137_Y125_H127Q] | 0.54 |
| RDMNAYISPSP [MMAA_Y207_R209S] | 0.508 |
| ARKRKYFKKHE [NFIX_Y40] | 0.591 |
| HTEGEYSSLEH [IDH3B_Y171_Q166H] | 0.785 |
| IGEGTSGVVYK [CDK2_Y15_Y15S] | 0.426 |
| KLPDAYERLIL [G6PD_Y437] | 0.561 |
| HSGVSYYINLC [IGF2R_Y2024_N2020S] | 1.09 |

| Sequence | phosphorylation enrichment |
| --- | --- |
| KDHPDYKYQRR [SOX10_Y171_P175R] | 0.369 |
| QRRNVYYYSYL [PTEN_Y176_Y174N] | 11.6 |
| GDYLSYREFHL [ERBIN_Y1107_S1112L] | 3.96 |
| DPTFGYEDFTR [SESN2_Y323] | 0.699 |
| PGIRMYQVQYN [LRFN1_Y454] | 0.863 |
| LESETYRRLLD [KRT12_Y429_I426S] | 1.02 |
| IHHIDYYKETT [FGFR1_Y653_K656E] | 0.891 |
| QRIHDYYEHRY [HCN4_Y554] | 9.67 |
| LTSKPYAFTAQ [NDUFS1_Y236_R241Q] | 0.371 |
| ERMKVYVPIGF [EPHX1_Y393_T396I] | 0.538 |
| PTYEHYANSTQ [SLC12A3_Y70] | 0.807 |
| DSSIRYLQEIF [FGG_Y135_YF] | 0.604 |
| IDAICYFRMEN [NPHS2_Y194_YF] | 0.949 |
| TSYQMYDKGLV [IARS2_Y231_F227S] | 0.568 |
| EKKDVYKAGEQ [CFH_Y1008] | 0.482 |
| LNPFIYSLRNW [OR1A2_Y288] | 1.1 |

Biological target: Jak2 (UniProt O60674)
Sequence (O60674 whole entry, looked up): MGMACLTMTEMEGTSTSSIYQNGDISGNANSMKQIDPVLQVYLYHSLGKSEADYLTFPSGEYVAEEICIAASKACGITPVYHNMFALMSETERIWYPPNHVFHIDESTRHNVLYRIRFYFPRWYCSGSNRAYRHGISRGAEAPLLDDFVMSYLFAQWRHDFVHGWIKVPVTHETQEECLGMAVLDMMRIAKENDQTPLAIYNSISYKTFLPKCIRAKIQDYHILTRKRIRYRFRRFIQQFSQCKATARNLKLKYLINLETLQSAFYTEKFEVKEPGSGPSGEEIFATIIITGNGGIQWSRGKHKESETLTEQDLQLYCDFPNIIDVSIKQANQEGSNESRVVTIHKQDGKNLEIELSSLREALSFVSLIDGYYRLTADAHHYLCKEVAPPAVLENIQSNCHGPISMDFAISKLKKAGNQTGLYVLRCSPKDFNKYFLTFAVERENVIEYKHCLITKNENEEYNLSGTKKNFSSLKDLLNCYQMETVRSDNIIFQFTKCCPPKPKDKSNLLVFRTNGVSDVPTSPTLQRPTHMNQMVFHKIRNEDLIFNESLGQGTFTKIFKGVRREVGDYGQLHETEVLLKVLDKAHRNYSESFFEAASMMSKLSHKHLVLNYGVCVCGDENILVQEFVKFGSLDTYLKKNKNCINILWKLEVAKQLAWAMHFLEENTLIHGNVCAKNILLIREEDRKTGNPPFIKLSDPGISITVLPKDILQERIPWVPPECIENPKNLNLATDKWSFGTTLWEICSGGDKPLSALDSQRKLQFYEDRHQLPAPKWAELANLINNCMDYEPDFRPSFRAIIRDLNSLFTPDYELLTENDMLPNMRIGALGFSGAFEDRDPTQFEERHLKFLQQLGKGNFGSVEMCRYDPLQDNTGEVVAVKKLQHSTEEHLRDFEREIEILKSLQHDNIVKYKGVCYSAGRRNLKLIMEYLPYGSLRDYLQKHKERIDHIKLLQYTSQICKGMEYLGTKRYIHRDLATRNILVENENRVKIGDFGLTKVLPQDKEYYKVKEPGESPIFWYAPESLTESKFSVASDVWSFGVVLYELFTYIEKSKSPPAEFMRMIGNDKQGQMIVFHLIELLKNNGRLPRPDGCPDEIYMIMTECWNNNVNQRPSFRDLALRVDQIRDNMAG
Assay: as above

| Sequence | phosphorylation enrichment |
| --- | --- |
| QHNPEYVQQAS [LRRC7_Y1058] | 0.544 |
| SENPKYPEVGD [TMEM43_Y233] | 0.891 |
| TYEPNYGTVKR [RAPGEF6_Y1447_Q1452R] | 0.604 |
| SNFRAYATEPH [TNNI3_Y29_YF] | 0.526 |
| IRGNMYFENSF [EGFR_Y112_YF] | 0.841 |
| WKKEIYEESST [MOCS2_Y170] | 1.18 |
| LGRGKSSEVFE [CSNK2A1_Y50_Y50S] | 0.996 |
| KSMSVYCTPNK [ATP2A2_Y497] | 0.581 |
| VYAADYYKLLG [ROR2_Y645] | 7.96 |
| KDHPDYKYPPR [SOX10_Y171_Q174P] | 0.462 |
| ESDGAYIQRMQ [CCDC137_Y125_H127Q] | 0.985 |
| RDMNAYISPSP [MMAA_Y207_R209S] | 0.879 |
| ARKRKYFKKHE [NFIX_Y40] | 0.477 |
| HTEGEYSSLEH [IDH3B_Y171_Q166H] | 0.828 |
| IGEGTSGVVYK [CDK2_Y15_Y15S] | 0.494 |
| KLPDAYERLIL [G6PD_Y437] | 0.591 |
| HSGVSYYINLC [IGF2R_Y2024_N2020S] | 2.38 |

| Sequence | phosphorylation enrichment |
| --- | --- |
| KDHPDYKYQRR [SOX10_Y171_P175R] | 0.519 |
| QRRNVYYYSYL [PTEN_Y176_Y174N] | 8.42 |
| GDYLSYREFHL [ERBIN_Y1107_S1112L] | 1.53 |
| DPTFGYEDFTR [SESN2_Y323] | 1.03 |
| PGIRMYQVQYN [LRFN1_Y454] | 1.24 |
| LESETYRRLLD [KRT12_Y429_I426S] | 1.07 |
| IHHIDYYKETT [FGFR1_Y653_K656E] | 0.513 |
| QRIHDYYEHRY [HCN4_Y554] | 0.794 |
| LTSKPYAFTAQ [NDUFS1_Y236_R241Q] | 0.625 |
| ERMKVYVPIGF [EPHX1_Y393_T396I] | 0.597 |
| PTYEHYANSTQ [SLC12A3_Y70] | 0.924 |
| DSSIRYLQEIF [FGG_Y135_YF] | 0.755 |
| IDAICYFRMEN [NPHS2_Y194_YF] | 2.44 |
| TSYQMYDKGLV [IARS2_Y231_F227S] | 0.957 |
| EKKDVYKAGEQ [CFH_Y1008] | 0.555 |
| LNPFIYSLRNW [OR1A2_Y288] | 1.34 |
